Publication PMC13506345, “Loss of cellular RNA homeostasis contributes to MDA5 activation during virus infection” (Nature Immunology, 2026)
Where two headings read alike, the source gives them in different places.

What was measured:
[1] = target: T1, melanoma differentiation-associated protein 5 (MDA5) (Homo sapiens (THP1 cells, endogenous), UniProt Q9BYX4); assay: immunoprecipitation; first IP (IP1): antibody A coupled to Dynabeads, incubated with THP1 cell lysate (native MDA5) 2 h at 4 °C, high-salt washes; IP analysed by western blot for MDA5; conditions: one partner purified
T1 construct: MDA5 (melanoma differentiation-associated protein 5), endogenous in human monocytic THP1 cells; printed MW 135 kDa; native in the cell lysate for the first IP, denatured (6 M urea, 1% SDS eluate of the first IP) for the second IP; The same endogenous protein stood native (IP1) and denatured (IP2); the two states are told apart by the assays; also called endogenous MDA5; native MDA5; source: …
T1 sequence (Q9BYX4 whole entry): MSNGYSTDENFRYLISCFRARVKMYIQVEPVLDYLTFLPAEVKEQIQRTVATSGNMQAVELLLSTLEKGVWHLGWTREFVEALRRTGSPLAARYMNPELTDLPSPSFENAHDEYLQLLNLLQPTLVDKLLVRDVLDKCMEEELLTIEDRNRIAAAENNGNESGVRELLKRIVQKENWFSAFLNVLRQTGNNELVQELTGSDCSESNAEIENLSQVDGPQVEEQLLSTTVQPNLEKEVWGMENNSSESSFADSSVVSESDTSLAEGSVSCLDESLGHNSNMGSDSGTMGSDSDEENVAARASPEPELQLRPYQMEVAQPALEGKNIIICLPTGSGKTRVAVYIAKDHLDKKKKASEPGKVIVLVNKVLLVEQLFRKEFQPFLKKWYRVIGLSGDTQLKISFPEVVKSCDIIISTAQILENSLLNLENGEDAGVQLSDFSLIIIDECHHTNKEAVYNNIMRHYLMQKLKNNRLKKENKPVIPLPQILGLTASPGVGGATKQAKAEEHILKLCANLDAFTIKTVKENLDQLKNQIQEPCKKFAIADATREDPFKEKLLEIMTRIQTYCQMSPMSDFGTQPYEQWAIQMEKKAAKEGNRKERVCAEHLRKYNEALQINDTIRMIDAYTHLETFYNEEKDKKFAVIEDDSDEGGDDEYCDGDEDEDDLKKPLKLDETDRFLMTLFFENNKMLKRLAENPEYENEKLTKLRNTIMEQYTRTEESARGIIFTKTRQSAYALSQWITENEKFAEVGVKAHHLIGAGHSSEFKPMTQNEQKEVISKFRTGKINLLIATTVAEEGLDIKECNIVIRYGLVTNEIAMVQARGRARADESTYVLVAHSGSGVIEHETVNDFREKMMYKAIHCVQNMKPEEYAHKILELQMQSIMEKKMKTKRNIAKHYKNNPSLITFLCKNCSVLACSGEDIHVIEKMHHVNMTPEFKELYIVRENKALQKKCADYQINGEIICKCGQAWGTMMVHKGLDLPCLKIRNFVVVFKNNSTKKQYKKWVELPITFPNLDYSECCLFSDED

[2] = target: T1, melanoma differentiation-associated …
[3] = target: T1, melanoma differentiation-associated …; assay: immunoprecipitation; second IP (IP2): MDA5 eluted from IP1 with urea cracking buffer (6 M urea, 1% SDS, 65 °C), neutralised with T-20 IP buffer, incubated with antibody B on Protein G Dynabeads 2 h at 4 °C; IP analysed by western blot for MDA5; conditions: both partners purified

B1: anti-MDA5 monoclonal antibody A (clone 16) (antibody, V domains shown)
VH: QVQLQQSGPDLVRPGTSVKMSCKAAGYTFTNSWIGWLKQRPGHGLEWIGDIYPGGGDTNSNENFKGKATLTADTSSSTAYMQLSSLTSEDSAVYYCARSTVIMRGYFDVWGAGTMVTVSS
VL: DIQMTQSPASLSASVGETVTITCRASGNIHNFLAWYQQKQGKSPQLLVYNAKTLADGVPSRFSGSGSGTQYSLKINSLQPEDFGSYYCQHFWSTPLTFGAGTKLELK
notes: Monoclonal antibody raised against MDA5 (generated by C. Song and B. Jin); covalently coupled to Dynabeads for the IP; also called Ab A; monoclonal antibody 16; source: hybridoma cells grown in bioreactors (CELLline)
binding result [1]: binds

B2: mAb 17 (antibody, V domains shown)
VH: QVQLQQSGAELVRPGASVTLSCKASGYTFADYEIHWVRQTPVHGLEWIGAIGPETGNTAYNQKFKGKATLTVDKSSSTVYMDLRSLTSEDSAVYYCTRGRILDWGQGTLVTVSA
VL: DVVMTQTPLSLPVSLGDQASISCRSSQSLVHSNGNTYLHWYLQKPGQSPKLLIYKVSKRFSGVPDRFSGSGSGTDFTLKISRVEAEDLGVYFCSQSTHIPYTFGGGTKLEIK
binding result [2]: binds

B3: anti-MDA5 monoclonal antibody B (clone 22) (antibody, V domains shown)
VH: QVQLQQSGPELVKPGASVKMSCKASGYTFTDYVISWVKQRTGQGLEWIGEIYPGSGNTFYNEKFKGKATLTADKSSNTAYMQLSSLTSEDSAVYFCARSGDYDLDYWGQGTSVTVSS
VL: EIVLTQSPTTMAASPGEKITITCSASSSISSNYLHWYQQKPGFSPKLLIYRTSNLASGVPARFSGSGSGTSYSLTIGTMEAEDVATYYCQQGGSIPLTFGAGTKLELK
notes: Hybridoma was non-recoverable; In some radiolabeling experiments pooled ascites fluids from several hybridoma clones including antibody B were used instead; Preincubated with Protein G Dynabeads for the IP; also called Ab B; monoclonal antibody 22
binding result [3]: binds
